B1: Nibrin (Homo sapiens), O60934 (parent)
chain: MWKLLPAAGPAGGEPYRLLTGVEYVVGRKNCAILIENDQSISRNHAVLTANFSVTNLSQTDEIPVLTLKDNSKYGTFVNEEKMQNGFSRTLKSGDGITFGVFGSKFRIEYEPLVACSSCLDVSGKTALNQAILQLGGFTVNNWTEECTHLVMVSVKVTIKTICALICGRPIVKPEYFTEFLKAVESKKQPPQIESFYPPLDEPSIGSKNVDLSGRQERKQIFKGKTFIFLNAKQHKKLSSAVVFGGGEARLITEENEEEHNFFLAPGTCVVDTGITNSQTLIPDCQKKWIQSIMDMLQRQGLRPIPEAEIGLAVIFMTTKNYCDPQGHPSTGLKTTTPGPSLSQGVSVDEKLMPSAPVNTTTYVADTESEQADTWDLSERPKEIKVSKMEQKFRMLSQDAPTVKESCKTSSNNNSMVSNTLAKMRIPNYQLSPTKLPSINKSKDRASQQQQTNSIRNYFQPSTKKRERDEENQEMSSCKSARIETSCSLLEQTQPATPSLWKNKEQHLSENEPVDTNSDNNLFTDTDLKSIVKNSASKSHAAEKLRSNKKREMDDVAIEDEVLEQLFKDTKPELEIDVKVQKQEEDVNVRKRPRMDIETNDTFSDEAVPESSKISQENEIGKKRELKEDSLWSAKEISNNDKLQDDSEMLPKKLLLTEFRSLVIKNSTSRNPSGINDDYGQLKNFKKFKKVTYPGAGKLPHIIGGSDLIAHHARKNTELEEWLRQEMEVQNQHAKEESLADDLFRYNPYLKRRR

In this assay the parent is B1. As to conditions: with chk2_human CHEK2, O96017.
Sequence of chk2_human CHEK2, O96017 (O96017 whole entry): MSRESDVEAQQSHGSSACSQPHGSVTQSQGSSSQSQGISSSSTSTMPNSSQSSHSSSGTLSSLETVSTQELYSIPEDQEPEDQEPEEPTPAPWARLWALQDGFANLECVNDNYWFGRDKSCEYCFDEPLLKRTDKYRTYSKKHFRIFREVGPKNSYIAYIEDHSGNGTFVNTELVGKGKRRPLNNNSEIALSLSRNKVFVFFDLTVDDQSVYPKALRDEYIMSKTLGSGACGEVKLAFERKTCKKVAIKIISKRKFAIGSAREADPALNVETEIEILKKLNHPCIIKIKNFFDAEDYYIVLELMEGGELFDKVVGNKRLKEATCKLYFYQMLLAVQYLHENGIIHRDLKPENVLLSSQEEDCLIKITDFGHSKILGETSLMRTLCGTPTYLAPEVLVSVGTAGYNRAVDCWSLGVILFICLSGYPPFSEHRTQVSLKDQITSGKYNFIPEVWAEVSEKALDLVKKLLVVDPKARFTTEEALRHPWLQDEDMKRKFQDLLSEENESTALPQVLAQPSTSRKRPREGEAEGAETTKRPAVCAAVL
Consider S343A, for which the “effect of a mutation on the interaction” value was “decreasing interaction”.

These data come from IntAct's records for PubMed 11438675.
